Experiment [1] addresses T1, BamB (as a subunit of the purified BAM complex) (E. coli, UniProt P77774 20-392).
T1 construct: BamB, E. coli, accessory lipoprotein of BAM, expressed from pJH114; Stood in the assays within the whole BAM complex, not alone
The experiment in a line: HDX-MS; differential HDX; 8 µM BAM with 10 µM SurA-WT or SurA-core, or 8 µM SurA-WT with 10 µM BAM; 0.02% DDM, 10 mM potassium phosphate, pH 8.0; labelling at 4 °C for 0.5, 2, 30, 120 min. Conditions: both partners purified.

The target of experiment [2] is β-barrel assembly machinery (BAM) complex, BamABCDE (E. coli, UniProt P0A940 21-810; P77774 20-392; P0A903 25-344; P0AC02 20-245; P0A937 20-113). The experiment in a line: cell-based or functional assay.
The next experiment concerns the target T2, SurA-WT (E. coli, UniProt P0ABZ6 21-428).
T2 construct: gene numbering including the signal peptide; also called wild-type SurA; source: E. coli BL21(DE3), purified (HisTrap with on-column 6 M Gdn-HCl wash, TEV cleavage, second HisTrap); not shown: His6, N-terminal, cleaved
T2 sequence: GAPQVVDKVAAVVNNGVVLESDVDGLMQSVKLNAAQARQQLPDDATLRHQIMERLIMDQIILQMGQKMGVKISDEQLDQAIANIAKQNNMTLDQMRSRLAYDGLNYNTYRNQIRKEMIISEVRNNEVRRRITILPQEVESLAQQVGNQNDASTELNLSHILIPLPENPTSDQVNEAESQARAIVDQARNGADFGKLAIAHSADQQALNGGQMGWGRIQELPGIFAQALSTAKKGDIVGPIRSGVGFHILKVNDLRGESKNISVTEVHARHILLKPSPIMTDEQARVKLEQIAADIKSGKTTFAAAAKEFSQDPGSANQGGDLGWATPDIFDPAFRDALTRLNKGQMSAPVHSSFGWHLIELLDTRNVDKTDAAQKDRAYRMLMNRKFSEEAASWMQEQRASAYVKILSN
Nature of the experiment: MST; 100 nM Alexa Fluor 488-labelled tOmpA, SurA or SurA domain deletion variant titrated 100 µM-3 nM, 0.8 M urea, 20 mM Tris-HCl, pH 8.0, 25 °C; Hill binding model; apparent Kd. The note with it: both partners purified.

For the next experiment, the target named is T3, SurA-∆P1 (E. coli, UniProt P0ABZ6 21-428, removing residues 172–280).
T3 construct: gene numbering including the signal peptide; source: E. coli BL21(DE3), purified (HisTrap with on-column 6 M Gdn-HCl wash, TEV cleavage, second HisTrap); not shown: His6, N-terminal, cleaved
T3 sequence: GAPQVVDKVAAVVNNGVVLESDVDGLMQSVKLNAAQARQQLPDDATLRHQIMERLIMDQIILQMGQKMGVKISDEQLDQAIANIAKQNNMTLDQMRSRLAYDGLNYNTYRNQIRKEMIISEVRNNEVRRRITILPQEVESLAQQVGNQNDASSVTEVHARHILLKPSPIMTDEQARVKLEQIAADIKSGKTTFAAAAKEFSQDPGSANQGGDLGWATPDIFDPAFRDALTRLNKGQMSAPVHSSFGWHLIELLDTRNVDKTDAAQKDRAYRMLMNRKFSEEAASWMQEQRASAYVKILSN
The description is as above. The note with it: both partners purified.

In a further experiment the target is T4, SurA-∆P2 (E. coli, UniProt P0ABZ6 21-428, removing residues 281–389).
T4 construct: gene numbering including the signal peptide; source: E. coli BL21(DE3), purified (HisTrap with on-column 6 M Gdn-HCl wash, TEV cleavage, second HisTrap); not shown: His6, N-terminal, cleaved
T4 sequence: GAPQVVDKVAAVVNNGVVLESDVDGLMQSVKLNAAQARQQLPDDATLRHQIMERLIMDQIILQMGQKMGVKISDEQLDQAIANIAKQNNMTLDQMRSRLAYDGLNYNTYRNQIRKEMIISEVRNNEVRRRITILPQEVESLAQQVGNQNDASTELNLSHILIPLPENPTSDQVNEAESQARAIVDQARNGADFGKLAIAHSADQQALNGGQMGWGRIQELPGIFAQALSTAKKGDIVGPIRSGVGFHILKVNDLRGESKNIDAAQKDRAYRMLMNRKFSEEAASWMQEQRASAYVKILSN
Described as above. Conditions: both partners purified.

The target of a further experiment is T5, SurA-core (E. coli, UniProt P0ABZ6 21-428, removing residues 172–389).
T5 construct: gene numbering including the signal peptide; source: E. coli BL21(DE3), purified (HisTrap with on-column 6 M Gdn-HCl wash, TEV cleavage, second HisTrap); not shown: His6, N-terminal, cleaved
T5 sequence: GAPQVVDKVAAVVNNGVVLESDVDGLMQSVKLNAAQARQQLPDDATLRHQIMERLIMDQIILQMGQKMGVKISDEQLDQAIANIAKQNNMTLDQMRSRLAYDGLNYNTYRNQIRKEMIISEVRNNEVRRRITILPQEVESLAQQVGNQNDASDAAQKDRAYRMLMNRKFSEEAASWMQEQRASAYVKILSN
The experiment is described as above. The note with it: both partners purified.

B1: SurA-core (SurA 21-428 without residues 172-389, His-tag cleaved) (domain or fragment, E. coli, UniProt P0ABZ6 21-428, looked up)
chain: APQVVDKVAAVVNNGVVLESDVDGLMQSVKLNAAQARQQLPDDATLRHQIMERLIMDQIILQMGQKMGVKISDEQLDQAIANIAKQNNMTLDQMRSRLAYDGLNYNTYRNQIRKEMIISEVRNNEVRRRITILPQEVESLAQQVGNQNDASDAAQKDRAYRMLMNRKFSEEAASWMQEQRASAYVKILSN
notes: numbers are the gene numbering (including the signal peptide); A G of the TEV site probably stays after cleavage (surmised); source: E. coli BL21(DE3), purified (HisTrap, on-column denaturation with 6 M Gdn-HCl, TEV cleavage, second HisTrap); not shown: His6, N-terminal, cleaved
For the molecule B1, the binding result in experiment [1] is recorded as “binds”. In addition, the “rate of BAM-catalysed folding of tOmpA into proteoliposomes (cold SDS–PAGE), with SurA-core against SurA-WT” value in experiment [2] is approximately 3 fold.

B2: Alexa Fluor 488-labelled tOmpA (domain or fragment)
chain: MCAPKDNTWYTGAKLGWSQYHDTGFINNNGPTHENQLGAGAFGGYQVNPYVGFEMGYDWLGRMPYKGSVENGAYKAQGVQLTAKLGYPITDDLDIYTRLGGMVWRADTKSNVYGKNHDTGVSPVFAGGVEYAITPEIATRLEYQWTNNIGDAHTIGTRPDNGMLSLGVSYRFG
modifications: Alexa Fluor 488 (C5 maleimide) on the added cysteine
notes: N-terminal Met and the Cys residue added immediately following it; unfolded: kept in 8 M urea and diluted to 0.8 M urea for the assay; also called Cys-tOmpA
Consider B2, for which the Kd was 3.7 µM in the experiment with SurA-WT, 14.5 µM with SurA-∆P1, 8.8 µM in the experiment with SurA-∆P2 and 10.2 µM with SurA-core.

Values taken from publication PMC9177699, “Dynamic interplay between the periplasmic chaperone SurA and the BAM complex in outer membrane protein folding” (Communications Biology, 2022).
